For orientation: Kd means the concentration at which binding is half-saturated.

Among the data in publication PMC8319308 are Kd values, retold here.

This assay deals with Gx-SB (protein G adapter domain fused to the small BiT fragment of split NanoLuc) (UniProt P06654). As to the kind of experiment: other; 4C2-SB (SB1) conjugate with 19C7-LB; LB-SB affinity.

“Gx-LB (protein G adapter domain fused to the large BiT fragment of split NanoLuc) (from UniProt P06654)” gave an equilibrium dissociation constant (Kd) of 2500 nM.
